Literature values as cited in paper PMC2814318.

Experiments:
[1] = target: CaV β1b subunit (Rattus norvegicus) (UniProt P54283)
[2] = target: CaV β2a subunit (Rattus norvegicus) (UniProt Q8VGC3)

CaMKIIδ, sequence (P15791 2-533, stated change not applied): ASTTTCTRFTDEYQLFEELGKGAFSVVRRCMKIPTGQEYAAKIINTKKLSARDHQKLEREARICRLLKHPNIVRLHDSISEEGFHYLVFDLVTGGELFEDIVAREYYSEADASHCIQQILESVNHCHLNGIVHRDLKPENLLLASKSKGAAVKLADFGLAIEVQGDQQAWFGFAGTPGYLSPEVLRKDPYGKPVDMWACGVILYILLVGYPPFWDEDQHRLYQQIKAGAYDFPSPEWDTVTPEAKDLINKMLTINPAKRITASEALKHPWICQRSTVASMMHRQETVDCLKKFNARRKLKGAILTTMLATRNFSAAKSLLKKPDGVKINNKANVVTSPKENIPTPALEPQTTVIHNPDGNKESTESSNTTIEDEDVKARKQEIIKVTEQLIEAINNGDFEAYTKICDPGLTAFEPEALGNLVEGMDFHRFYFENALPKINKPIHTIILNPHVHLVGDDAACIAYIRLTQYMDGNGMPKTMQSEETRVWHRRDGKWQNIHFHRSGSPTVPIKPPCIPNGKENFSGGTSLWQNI
CaV β1b subunit (Rattus norvegicus), sequence (P54283 whole entry): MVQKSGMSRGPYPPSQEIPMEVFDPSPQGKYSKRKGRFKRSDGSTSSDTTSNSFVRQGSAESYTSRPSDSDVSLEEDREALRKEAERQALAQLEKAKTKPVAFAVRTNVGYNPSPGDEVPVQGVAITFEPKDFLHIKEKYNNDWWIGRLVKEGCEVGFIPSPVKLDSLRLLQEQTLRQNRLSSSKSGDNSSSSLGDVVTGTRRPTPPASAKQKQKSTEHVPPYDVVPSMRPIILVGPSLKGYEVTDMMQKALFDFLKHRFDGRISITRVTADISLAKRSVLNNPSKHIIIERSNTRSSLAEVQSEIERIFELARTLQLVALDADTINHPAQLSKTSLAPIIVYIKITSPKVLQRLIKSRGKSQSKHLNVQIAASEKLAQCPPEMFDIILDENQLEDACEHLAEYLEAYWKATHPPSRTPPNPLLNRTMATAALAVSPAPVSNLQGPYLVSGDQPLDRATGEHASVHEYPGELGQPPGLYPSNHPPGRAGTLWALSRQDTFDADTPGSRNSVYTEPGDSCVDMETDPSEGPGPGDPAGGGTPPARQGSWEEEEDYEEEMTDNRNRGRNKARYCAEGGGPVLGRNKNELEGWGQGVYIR

Kd [1]: 0.1 µM
Kd [2]: 0.1 µM
Substance: CaMKIIδ (from UniProt P15791)
